Measurements published in paper PMC9482650, “Quantitative fragmentomics allow affinity mapping of interactomes” (Nature Communications, 2022).

Key:
Assay in all cases: holdup assay
Design in all cases: key: below the threshold = too weak to quantify, mostly under pKd 3.1 to 4
SCRIB_3, Q14160 = target: SCRIB_3, Q14160
Inadl_9, Q8NI35 = target: Inadl_9, Q8NI35
TX1BP3, O14907 = target: T1, TX1BP3, O14907
T1 sequence (O14907 10-122, limits assumed, looked up): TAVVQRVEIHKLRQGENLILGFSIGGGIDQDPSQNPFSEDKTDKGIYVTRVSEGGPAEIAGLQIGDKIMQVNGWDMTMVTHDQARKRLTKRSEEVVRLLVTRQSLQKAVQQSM

LAP2, Q96RT1 = target: LAP2, Q96RT1
LAP2, Q96RT1, sequence (Q96RT1 other isoform, or with tags, fused parts or gaps): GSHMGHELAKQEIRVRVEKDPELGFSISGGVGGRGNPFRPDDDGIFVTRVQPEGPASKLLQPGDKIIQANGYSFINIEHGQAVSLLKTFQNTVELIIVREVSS

DLG3_1, Q92796 = target: T2, DLG3_1, Q92796
T2 sequence (Q92796 125-227, limits assumed, looked up): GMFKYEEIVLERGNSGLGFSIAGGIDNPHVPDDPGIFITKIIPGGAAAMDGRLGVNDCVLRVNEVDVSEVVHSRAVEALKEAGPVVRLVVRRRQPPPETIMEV

PDLIM1, O00151 = target: PDLIM1, O00151
PDLIM1, O00151, sequence (O00151 1-87): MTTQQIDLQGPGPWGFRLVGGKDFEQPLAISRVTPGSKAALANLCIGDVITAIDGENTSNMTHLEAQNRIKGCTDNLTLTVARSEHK

FRMPD2_1, Q68DX3 = target: FRMPD2_1, Q68DX3
FRMPD2_1, Q68DX3, sequence (Q68DX3 770-861): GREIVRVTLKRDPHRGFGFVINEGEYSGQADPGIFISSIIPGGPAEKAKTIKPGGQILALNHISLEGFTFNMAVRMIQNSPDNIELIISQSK

HTRA3, P83110 = target: T3, HTRA3, P83110
T3 sequence (P83110 354-453, limits assumed, looked up): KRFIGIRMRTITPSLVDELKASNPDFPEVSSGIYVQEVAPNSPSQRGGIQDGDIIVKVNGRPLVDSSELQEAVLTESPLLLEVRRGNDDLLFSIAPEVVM

GOPC, Q9HD26 = target: GOPC, Q9HD26
GRIP2_4, Q9C0E4 = target: GRIP2_4, Q9C0E4
GRIP2_4, Q9C0E4, sequence (Q9C0E4 446-548): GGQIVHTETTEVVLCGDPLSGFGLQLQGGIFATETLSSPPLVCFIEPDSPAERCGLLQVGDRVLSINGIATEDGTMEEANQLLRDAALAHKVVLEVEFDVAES

DLG4_2, P78352 = target: DLG4_2, P78352
DLG4_2, P78352, sequence (P78352 155-259): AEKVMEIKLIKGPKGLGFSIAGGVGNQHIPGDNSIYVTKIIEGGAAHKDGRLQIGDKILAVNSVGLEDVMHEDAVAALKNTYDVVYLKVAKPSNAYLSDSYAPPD

TJP2_1, Q9UDY2 = target: TJP2_1, Q9UDY2
TJP2_1, Q9UDY2, sequence (Q9UDY2 24-128): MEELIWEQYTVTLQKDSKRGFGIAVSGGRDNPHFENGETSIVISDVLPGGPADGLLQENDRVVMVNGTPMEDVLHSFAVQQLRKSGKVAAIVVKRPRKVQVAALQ

DLG4_3, P78352 = target: DLG4_3, P78352
DLG4_3, P78352, sequence (P78352 306-403): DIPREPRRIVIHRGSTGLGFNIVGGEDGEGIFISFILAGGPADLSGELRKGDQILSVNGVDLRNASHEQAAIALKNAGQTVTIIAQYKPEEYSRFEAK

LIN7B, Q9HAP6 = target: T4, LIN7B, Q9HAP6
T4 sequence (Q9HAP6 88-185, limits assumed, looked up): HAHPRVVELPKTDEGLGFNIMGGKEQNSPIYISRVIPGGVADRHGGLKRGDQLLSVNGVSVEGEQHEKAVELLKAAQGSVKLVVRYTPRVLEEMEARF

Inadl_1, Q8NI35 = target: Inadl_1, Q8NI35
Inadl_1, Q8NI35, sequence (Q8NI35 113-229): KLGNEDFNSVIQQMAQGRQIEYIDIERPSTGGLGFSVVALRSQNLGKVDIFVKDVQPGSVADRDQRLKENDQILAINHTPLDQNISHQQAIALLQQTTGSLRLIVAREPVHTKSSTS

LNX1_1, Q8TBB1 = target: LNX1_1, Q8TBB1
LNX1_1, Q8TBB1, sequence (Q8TBB1 261-371): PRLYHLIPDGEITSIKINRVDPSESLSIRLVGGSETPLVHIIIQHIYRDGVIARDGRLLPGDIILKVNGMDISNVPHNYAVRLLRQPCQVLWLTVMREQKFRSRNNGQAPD

IL16_4, Q14005 = target: IL16_4, Q14005
IL16_4, Q14005, sequence (Q14005 1229-1329): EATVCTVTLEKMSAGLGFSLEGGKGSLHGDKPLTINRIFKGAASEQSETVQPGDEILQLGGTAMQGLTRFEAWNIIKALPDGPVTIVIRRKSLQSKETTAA

TJP1_3, Q07157 = target: TJP1_3, Q07157
TJP1_3, Q07157, sequence (Q07157 416-512): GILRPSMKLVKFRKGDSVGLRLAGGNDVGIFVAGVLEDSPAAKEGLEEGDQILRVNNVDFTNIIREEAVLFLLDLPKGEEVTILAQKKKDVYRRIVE

MAGI2_3, Q86UL8 = target: MAGI2_3, Q86UL8
MAGI2_3, Q86UL8, sequence (Q86UL8 600-682): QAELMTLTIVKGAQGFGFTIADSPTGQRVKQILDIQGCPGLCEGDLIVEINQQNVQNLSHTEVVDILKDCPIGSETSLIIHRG

SNTG1, Q9NSN8 = target: T5, SNTG1, Q9NSN8
T5 sequence (Q9NSN8 52-150, limits assumed, looked up): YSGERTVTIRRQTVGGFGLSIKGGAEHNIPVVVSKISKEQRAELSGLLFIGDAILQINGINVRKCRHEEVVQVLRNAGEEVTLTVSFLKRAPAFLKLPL

Inadl_6, Q8NI35 = target: Inadl_6, Q8NI35
Inadl_6, Q8NI35, sequence (Q8NI35 1058-1167): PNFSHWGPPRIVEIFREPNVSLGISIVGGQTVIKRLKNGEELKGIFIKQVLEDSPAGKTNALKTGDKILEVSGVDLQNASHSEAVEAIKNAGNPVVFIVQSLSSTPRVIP

RAPGEF6, Q8TEU7 = target: T6, RAPGEF6, Q8TEU7
T6 sequence (Q8TEU7 525-625, limits assumed, looked up): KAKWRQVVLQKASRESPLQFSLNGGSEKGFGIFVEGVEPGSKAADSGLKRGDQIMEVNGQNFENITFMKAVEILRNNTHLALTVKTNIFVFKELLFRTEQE

FRMPD2_2, Q68DX3 = target: FRMPD2_2, Q68DX3
FRMPD2_2, Q68DX3, sequence (Q68DX3 944-1038): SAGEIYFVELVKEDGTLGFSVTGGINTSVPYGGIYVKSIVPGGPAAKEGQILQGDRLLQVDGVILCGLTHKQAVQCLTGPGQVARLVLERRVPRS

NHERF4_2, Q86UT5 = target: NHERF4_2, Q86UT5
NHERF4_2, Q86UT5, sequence (Q86UT5 220-308): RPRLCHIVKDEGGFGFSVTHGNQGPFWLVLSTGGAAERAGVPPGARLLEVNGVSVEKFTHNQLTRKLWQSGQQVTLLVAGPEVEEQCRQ

TIAM2, Q8IVF5 = target: T7, TIAM2, Q8IVF5
T7 sequence (Q8IVF5 885-986, limits assumed, looked up): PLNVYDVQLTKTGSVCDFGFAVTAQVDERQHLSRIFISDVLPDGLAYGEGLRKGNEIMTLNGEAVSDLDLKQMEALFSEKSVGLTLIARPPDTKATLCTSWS

HTRA2, O43464 = target: HTRA2, O43464
HTRA2, O43464, sequence (O43464 355-458): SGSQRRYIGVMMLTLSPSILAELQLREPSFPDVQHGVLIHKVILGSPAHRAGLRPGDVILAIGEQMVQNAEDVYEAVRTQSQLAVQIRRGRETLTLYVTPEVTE

PCLO, Q9Y6V0 = target: T8, PCLO, Q9Y6V0
T8 sequence (Q9Y6V0 4491-4600, limits assumed, looked up): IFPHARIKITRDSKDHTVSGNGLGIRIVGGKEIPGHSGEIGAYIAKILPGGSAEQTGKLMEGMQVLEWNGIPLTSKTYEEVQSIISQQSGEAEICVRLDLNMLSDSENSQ

PDZD2_2, O15018 = target: T9, PDZD2_2, O15018
T9 sequence (O15018 329-429, limits assumed, looked up): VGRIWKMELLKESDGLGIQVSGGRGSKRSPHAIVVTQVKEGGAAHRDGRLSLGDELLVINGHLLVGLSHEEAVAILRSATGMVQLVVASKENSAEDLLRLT

[1] = plain residues with an end cap or a label only (N-terminal biotin on a linker: (peg)3)
[2] = plain residues with an end cap or a label only (N-terminal biotin on a linker: ado-ado)

Inadl_9, Q8NI35, sequence (Q8NI35 1530-1615): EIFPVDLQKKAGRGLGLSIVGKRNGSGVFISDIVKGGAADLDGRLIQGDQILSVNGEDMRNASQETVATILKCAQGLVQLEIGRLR
SCRIB_3, Q14160, sequence (Q14160 999-1103): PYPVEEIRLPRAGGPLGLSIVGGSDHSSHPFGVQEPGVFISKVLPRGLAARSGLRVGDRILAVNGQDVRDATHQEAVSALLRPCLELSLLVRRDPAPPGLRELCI

B1: SARS-Cov2-N, P0DTC9 (peptide)
chain: QQSMSSADSTQA
pKd (SCRIB_3, Q14160; [1]): below the threshold | pKd (Inadl_9, Q8NI35; [1]): below the threshold | pKd (TX1BP3, O14907; [1]): below the threshold | pKd (LAP2, Q96RT1; [1]): below the threshold | pKd (DLG3_1, Q92796; [1]): below the threshold | pKd (PDLIM1, O00151; [1]): below the threshold | pKd (FRMPD2_1, Q68DX3; [1]): below the threshold | pKd (HTRA3, P83110; [1]): below the threshold | pKd (GOPC, Q9HD26; [1]): below the threshold | pKd (GRIP2_4, Q9C0E4; [1]): below the threshold | pKd (DLG4_2, P78352; [1]): below the threshold | pKd (TJP2_1, Q9UDY2; [1]): below the threshold | pKd (DLG4_3, P78352; [1]): below the threshold | pKd (LIN7B, Q9HAP6; [1]): below the threshold | pKd (Inadl_1, Q8NI35; [1]): below the threshold | pKd (LNX1_1, Q8TBB1; [1]): below the threshold | pKd (IL16_4, Q14005; [1]): below the threshold | pKd (TJP1_3, Q07157; [1]): below the threshold | pKd (MAGI2_3, Q86UL8; [1]): below the threshold | pKd (SNTG1, Q9NSN8; [1]): below the threshold | pKd (Inadl_6, Q8NI35; [1]): below the threshold | pKd (RAPGEF6, Q8TEU7; [1]): below the threshold | pKd (FRMPD2_2, Q68DX3; [1]): below the threshold | pKd (NHERF4_2, Q86UT5; [1]): below the threshold | pKd (TIAM2, Q8IVF5; [1]): below the threshold | pKd (HTRA2, O43464; [1]): below the threshold | pKd (PCLO, Q9Y6V0; [1]): below the threshold | pKd (PDZD2_2, O15018; [1]): below the threshold

B2: SLC22A9, Q8IVM8 (peptide)
chain: EDPRVEVTQF
pKd (SCRIB_3, Q14160; [2]): 3.66 | pKd (Inadl_9, Q8NI35; [2]): below the threshold | pKd (TX1BP3, O14907; [2]): below the threshold | pKd (LAP2, Q96RT1; [2]): below the threshold | pKd (DLG3_1, Q92796; [2]): below the threshold | pKd (PDLIM1, O00151; [2]): below the threshold | pKd (FRMPD2_1, Q68DX3; [2]): below the threshold | pKd (HTRA3, P83110; [2]): below the threshold | pKd (GOPC, Q9HD26; [2]): below the threshold | pKd (GRIP2_4, Q9C0E4; [2]): below the threshold | pKd (DLG4_2, P78352; [2]): below the threshold | pKd (TJP2_1, Q9UDY2; [2]): below the threshold | pKd (DLG4_3, P78352; [2]): below the threshold | pKd (LIN7B, Q9HAP6; [2]): 3.83 | pKd (Inadl_1, Q8NI35; [2]): below the threshold | pKd (LNX1_1, Q8TBB1; [2]): below the threshold | pKd (IL16_4, Q14005; [2]): below the threshold | pKd (TJP1_3, Q07157; [2]): below the threshold | pKd (MAGI2_3, Q86UL8; [2]): below the threshold | pKd (SNTG1, Q9NSN8; [2]): below the threshold | pKd (Inadl_6, Q8NI35; [2]): below the threshold | pKd (RAPGEF6, Q8TEU7; [2]): below the threshold | pKd (FRMPD2_2, Q68DX3; [2]): below the threshold | pKd (NHERF4_2, Q86UT5; [2]): below the threshold | pKd (TIAM2, Q8IVF5; [2]): 4.15 | pKd (HTRA2, O43464; [2]): below the threshold | pKd (PCLO, Q9Y6V0; [2]): below the threshold | pKd (PDZD2_2, O15018; [2]): below the threshold

B3: TRIP6, Q15654 (peptide)
chain: ELSATVTTDC
pKd (SCRIB_3, Q14160; [2]): 4.24 | pKd (Inadl_9, Q8NI35; [2]): below the threshold | pKd (TX1BP3, O14907; [2]): 3.48 | pKd (LAP2, Q96RT1; [2]): below the threshold | pKd (DLG3_1, Q92796; [2]): below the threshold | pKd (PDLIM1, O00151; [2]): below the threshold | pKd (FRMPD2_1, Q68DX3; [2]): below the threshold | pKd (HTRA3, P83110; [2]): 4.04 | pKd (GOPC, Q9HD26; [2]): below the threshold | pKd (GRIP2_4, Q9C0E4; [2]): below the threshold | pKd (DLG4_2, P78352; [2]): 3.91 | pKd (TJP2_1, Q9UDY2; [2]): below the threshold | pKd (DLG4_3, P78352; [2]): below the threshold | pKd (LIN7B, Q9HAP6; [2]): below the threshold | pKd (Inadl_1, Q8NI35; [2]): below the threshold | pKd (LNX1_1, Q8TBB1; [2]): 3.95 | pKd (IL16_4, Q14005; [2]): below the threshold | pKd (TJP1_3, Q07157; [2]): below the threshold | pKd (MAGI2_3, Q86UL8; [2]): 3.56 | pKd (SNTG1, Q9NSN8; [2]): 3.48 | pKd (Inadl_6, Q8NI35; [2]): below the threshold | pKd (RAPGEF6, Q8TEU7; [2]): below the threshold | pKd (FRMPD2_2, Q68DX3; [2]): 3.47 | pKd (NHERF4_2, Q86UT5; [2]): below the threshold | pKd (TIAM2, Q8IVF5; [2]): below the threshold | pKd (HTRA2, O43464; [2]): below the threshold | pKd (PCLO, Q9Y6V0; [2]): below the threshold | pKd (PDZD2_2, O15018; [2]): 4.2
